Experimental data published in PMC10998906 (NPJ Vaccines, 2024).

Target: HA (NL03, A/Netherlands/213/2003(H3N2)) (Influenza A virus …, strain)
Assay: negative-stain EM
Settings: both partners purified

B1: CR9114 Fab (Fab, V domains shown)
VH: QVQLVQSGAEVKKPGSSVKVSCKSSGGTSNNYAISWVRQAPGQGLDWMGGISPIFGSTAYAQKFQGRVTISADIFSNTAYMELNSLTSEDTAVYFCARHGNYYYYSGMDVWGQGTTVTVSS
VL: QSALTQPPAVSGTPGQRVTISCSGSDSNIGRRSVNWYQQFPGTAPKLLIYSNDQRPSVVPDRFSGSKSGTSASLAISGLQSEDEAEYYCAAWDDSLKGAVFGGGTQLTVL
B1 was tested, and the “stoichiometry N” value was 1 Fab per particle.
